A short description of the data set: yeast display, Sf9 membrane polyspecificity reagent, FACS + sequencing; frameworks hold sequencing errors. The procedure, abridged: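 Galactose-induced (36–48 hours) yeast carrying a synthetic nanobody display library were exposed to 10% biotinylated, detergent-solubilized Sf9 membrane reagent at 4 °C for 1 hour. FACS followed streptavidin microbead enrichment, using low and high (top ~1%) gates for expression (anti-HA) and reagent binding (streptavidin). Colony PCR, MiSeq 2 × 250 sequencing and CDR-length filtering followed. Labels for polyreactivity reflect the gate of origin.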
“QVQLVESGGGLVQAGGSLRLSCAASGRIFGQNVMGWYIQAPGKERELVAAITSAGRTYYADSVKGRFTISRDIAKNTVYLQMKSLKPEDTAVYYCAAYVRRGFDWGQGTQVTVSS”: the “polyreactivity (PSR sort gate)” value is recorded as “high polyreactivity”. On to “QVQLVESGGGLVQAGGSLRLSCAASGRIFGRNAMGWYRQAPGKERELVAAISKSGTSTYYADSVKGRFTISRDNAKNTVYLQMNSLKPEDTAVYYCAAALPGYGDYYYWGQGTQVTVSS”, for which the “polyreactivity (PSR sort gate)” value is listed as “high polyreactivity”. Then “QVQLVESGGGLVQAGGSLRLSCAASGRIFGRNAMGWYRQAPGKERELVAAISRSGGSTYYADSVKGRFTISRDNAKNTVYLQMNSLKPEFTAVYYCAADVYRTWYWWFDYWGHGTQVTVSS”, with “high polyreactivity”.

Consider “QVQLVESGGGLVQAGGSLRLSCAASGRIFGRNAMGWYRQAPGKERELVAAISWRGGNTYYADSVKGRFTISRDNAKNTVYLQMNSLKPEDTAVYYCNTVQYRNEMGYWGQGTQVTVSS”, for which the “polyreactivity (PSR sort gate)” value was “high polyreactivity”. “QVQLVESGGGLVQAGGSLRLSCAASGRIFGRNAMGWYRQAPGKERELVASITWTGGSTYYADSVKGRFTISRDNAKNTVYLQMNSLKPEDTAVYYCAAETWYGSSWWDAGEYYYWGQGTQVTVSS”: the “polyreactivity (PSR sort gate)” value is recorded as “high polyreactivity”. In the case of “QVQLVESGGGLVQAGGSLRLSCAASGRIFGRYAKGWYRQAPGKEMELVAAISRSGGSTYYADSVKGRFTISRDNAKNTVYLQMNSLKPEDTAVYDCAAVPGISVGRQPGYDSDYWGQGTQVTVSS”, the “polyreactivity (PSR sort gate)” value was “low polyreactivity”. The same measure for “QVQLVESGGGLVQAGGSLRLSCAASGRIFGRYAMGWYRQAPGKDRELVAAITYSGGSTYYADSVKGRFTISRDNAKNTVYFQMNSLKPEDTALYYCNAVAYRSRGPHFNYWGQGTQVTVST”: “high polyreactivity”. The same measure for “QVQLVESGGGLVQAGGSLRLSCAASGRIFGRYAMGWYRQAPGKERELVAAISRRGGTTYYADSVKGRFTISRDNAKNTVYLQMNSLKPEDTAVYYCNADTYGYGFDYWGQGTQVTVSS”: “high polyreactivity”; for “QVQLVESGGGLVQAGGSLRLSCAASGRIFGRYAMGWYRQAPGKERELVAAITSGGSTKYADSVKGRFTISRDNAKNNVDLQMNSLKPEDTAVYYCAVVPYGPVYRSYYYWGQGTQVTVSS”: “high polyreactivity”. Then “QVQLVESGGGLVQAGGSLRLSCAASGRIFGRYAMGWYRQAPGKERELVAGISARGGSTYYADSVKGRFTISRDNAKNTVYLQMNSLKPADTAVYYCAAAGYRGGGYWGQRTQVTVSS”, with “high polyreactivity”; and “QVQLVESGGGLVQAGGSLRLSCAASGRIFGRYAMGWYRQAPGKERELVARITFRGGNTYYADSVKGRFTISRDNAKNTVYLQMNSLKPEDTAVYYCNASKHNPYGGDYWGQGTQVTVSS”, with “high polyreactivity”; and “QVQLVESGGGLVQAGGSLRLSCAASGRIFGRYAMGWYRQAPGKERELVASIRSRGGSTYYADSVKGRFTISRDNAKNTVYLQMNSLKPEDTAVYYCAADGTRSYKGYYWGQGTQVTVSS”, with “high polyreactivity”. On to “QVQLVESGGGLVQAGGSLRLSCAASGRIFGRYAMGWYRQAPGKERGLVAAITRRGGNTYYADSVKGRFTISRDNAKNTVYLQMNSLKPEDTAVYYCNDDTSTYAIRGQWSWYDYWGQGTQVTVSS”, for which the “polyreactivity (PSR sort gate)” value is reported as “high polyreactivity”.

On to “QVQLVESGGGLVQAGGSLRLSCAASGRIFGRYAMGWYRQATGKERELVAAITSGGRTSYADSVKGRFTISRDNAKNTVYLQMNSLKPEDTAVYYCNVVSRNSIRFDYWGQGTQVTVSS”, for which the “polyreactivity (PSR sort gate)” value is listed as “high polyreactivity”.

As for “QVQLVESGGGLVQAGGSLRLSCAASGRIFGSNAMGWYRQAPAKERELVAAITFRTASTYYADSVKGRFTISRDNAKNTVYLQMNSLKPEDTSVYSCNADKFSAPPLYEYEYWGQGTQVTVSS”, the “polyreactivity (PSR sort gate)” value is listed as “low polyreactivity”. The same measure for “QVQLVESGGGLVQAGGSLRLSCAASGRIFGSYAMGWYRQAPGKERELVATISRRGGSTYYADSVKGRFTISRDNAKNTVYLQMNRLKPEDTAVYYCNADYKITKTWSGTIRYYYWGQGTQVTVSS”: “high polyreactivity”.

In the case of “QVQLVESGGGLVQAGGSLRLSCAASGRIFGSYGMGWYRQAPGKEWELVAAITPSGTSTYYADSVKGRFTISRDNAKNTVYLEMNSLKPEDTAVYNCNALFYRRYAFAFGYWRQGTQVTVSS”, the “polyreactivity (PSR sort gate)” value is listed as “high polyreactivity”. On to “QVQLVESGGGLVQAGGSLRLSCAASGRIFGTNAMGWYRQAPGKERELVAAITWNADDTYYADSVKGRFTISRDNAKNTVYLQMNSLKPEDTAVYYCAADSYEGYYYWGQGTQVTVSS”, for which the “polyreactivity (PSR sort gate)” value is “low polyreactivity”.

Consider “QVQLVESGGGLVQAGGSLRLSCAASGRIFGTNAMGWYRQAPGKERELVADITSGGSTNYADSVKGRFTISRDNAKNTVYLQMNSLKPEDTAVYYCAADVIADLRWYRDEYWGQGTQLTVSS”, for which the “polyreactivity (PSR sort gate)” value is reported as “low polyreactivity”. The same measure for “QVQLVESGGGLVQAGGSLRLSCAASGRIFGTYAMGWYRQAPGKERELVAAITSGGRTYYADSVKGRFTISRDNAKNTVYLQMNSLKPEDTAVYYCNAVRYYVYDRRFNYWGQGTQVTVSS”: “high polyreactivity”; for “QVQLVESGGGLVQAGGSLRLSCAASGRIFGTYAMGWYRQAPRKERELVAAITQSARSTYYADSVKGRFTISRDNAKNTVYLQMNSLKPEDTAVYYCAAVGYYTKRRFGYWGQGTQVTVSS”: “high polyreactivity”. As to “QVQLVESGGGLVQAGGSLRLSCAASGRIFGTYTKGWYRQAPGKERELVAAITTGGITNYADSVKGRFTISRDNAKNTVYLQMKSLKPEDTAVYYCNARWDYGAYEYWGQGTQVTVSS”, the “polyreactivity (PSR sort gate)” value is reported as “low polyreactivity”. On to “QVQLVESGGGLVQAGGSLRLSCAASGRIFGVNAMGRYRQAPGKERELVADISSGGSTYYADSVKGRFTISRDNAKNTVYLQMNSLNPEDTAVYSCAVDKYVFVSYSFYFEYDYWGQGTQVTVSS”, for which the “polyreactivity (PSR sort gate)” value is listed as “low polyreactivity”.

Take “QVQLVESGGGLVQAGGSLRLSCAASGRIFGVNAMGWYRQAPGKERELVAAIDWSDGSTYYADSVKGRFTISRDNAKNTVYLQMNSLKPEDTAVYYCATDYSYGDYYDDEFPSDDFDYWGQGTQVTVSS”: the “polyreactivity (PSR sort gate)” value is on record as “low polyreactivity”. The same measure for “QVQLVESGGGLVQAGGSLRLSCAASGRIFGVNAMGWYRQAPGKERELVAAINYSGGRTSYADSVKGRFTISRDNEKNTVYLQMKSLKPEDTAVYYCAKYGLRGGYLYYYWGQGTQVTVSS”: “high polyreactivity”; for “QVQLVESGGGLVQAGGSLRLSCAASGRIFGVNAMGWYRQAPGKERELVAAITSGGSTNYADSVKGRFTISRDNAKNTVYLQMNSLKPEDTAVYYCAAVNYYWGQGTQVTVSS”: “low polyreactivity”.

Regarding “QVQLVESGGGLVQAGGSLRLSCAASGRIFGVNAMGWYRQAPGKERELVADITGSGGSTYYADSVKGRFTISRDNAKNTVYLQMNCLKAEDTAVYYCATRWIGYTSQWDHFEYDYWGQGTQVTVSS”, the “polyreactivity (PSR sort gate)” value is recorded as “low polyreactivity”. The same measure for “QVQLVESGGGLVQAGGSLRLSCAASGRIFGVNAMGWYRQAPGKERELVAVISSGGSTYYADSVKGRFTISRDNAKKTVYLQMNSLKPEDTEVYYCDRKSYNFIPGNREYDYWGQGTQVTVSS”: “low polyreactivity”; for “QVQLVESGGGLVQAGGSLRLSCAASGRIFGVNAMGWYRQAPGKVRELVAAIRYSGGSTYYADSVKGRFTISRDYAKNTVYLQMNSLKPEDTAVYYCAKARYTYSWSFGYWGQGTQVTVSS”: “low polyreactivity”. The same measure for “QVQLVESGGGLVQAGGSLRLSCAASGRIFGVYALGWYRQAPGKARELVAVINGRGSRTYYADSVKGRFRISRDNAKNTVYLQMNSLKPEDTAVYYCAAGYPASEYDYWGQGTQVTVSS”: “high polyreactivity”; for “QVQLVESGGGLVQAGGSLRLSCAASGRIFGVYAMGWYREAPGKEREVVAAITYRGASTYADSVKGRFTISRVNAKKTVYLQMNSLKPEDTAVYYCATYPQYYFRYDYWGQGTQVTVSS”: “high polyreactivity”. Take “QVQLVESGGGLVQAGGSLRLSCAASGRIFGVYAMGWYRQAPGKERELFADISWSGSGTYADSVKGRFTISRDNAKNTVYLQMNSLKPEDTAVYYCNVDPAQIHAGYVGYDYWGQGTQVTVSS”: the “polyreactivity (PSR sort gate)” value is listed as “low polyreactivity”. The same measure for “QVQLVESGGGLVQAGGSLRLSCAASGRIFGVYAMGWYRQAPGKERELVAAISFSGGRTYYADSVKGRFTISRDNAKNTVYLQMNSLKAEDTAVYDCAALGPYDWLWAGDYWGQGTQVTVSS”: “low polyreactivity”; for “QVQLVESGGGLVQAGGSLRLSCAASGRIFGVYAMGWYRQAPGKERELVAAISSTGDRTYYADSVKGRFTISRDNAKNTVYLQMNSLKPEDTAVYYCAARPAYRSSYYWGQGTQVTVSS”: “high polyreactivity”. Then “QVQLVESGGGLVQAGGSLRLSCAASGRIFGVYAMGWYRQAPGKERQLVAAITARGGSTYYADSVKGRFTISRDNAKNTVYLQMNSLKPEDTAVYYCATRLYKRTRTITYGYWGQGTQVTVSS”, with “high polyreactivity”; and “QVQLVESGGGLVQAGGSLRLSCAASGRIFGVYGMGWYRQAPGKERELVAAITISGRTNYADSVKGRFTISRDNAKNTVYLQMNSLKPEDTAVYYCAAEKRKLFQGVARYRYEYWGQGTQVTVSS”, with “low polyreactivity”. The same measure for “QVQLVESGGGLVQAGGSLRLSCAASGRIFGVYGMGWYRQAPGKERELVAAITISGRTNYADSVKGRFTISRDNAKNTVYLQMNSLKREDTAVYYCAAGGQARHDYWGQGTQVTVSS”: “low polyreactivity”; for “QVQLVESGGGLVQAGGSLRLSCAASGRIFGYNAMGWYRQAPGKEREFVAAITYRGGSTYYADSVKGRFTISRDNAKTTVYLEMNSLKPEDTAVYYCASRVTQYPKYWGDYWGQGTQVTVSS”: “high polyreactivity”; for “QVQLVESGGGLVQAGGSLRLSCAASGRIFGYNAMGWYRQAPGKERELVAAIRYSGGRTYYADSVKGRFTISRDNAKNTVYLQMNSLKREDTAVYYCAATAFDKLKVWYYYWGQGTQVTVSS”: “high polyreactivity”. Regarding “QVQLVESGGGLVQAGGSLRLSCAASGRIFGYNAMGWYRQAPGKERELVATISGRGGSTYYADSVKGRFTISRDNAKNTVYLQMNSLKPEDTAVYYCNAKRKYGRFPKKYYYWGQGTQVTVSS”, the “polyreactivity (PSR sort gate)” value is recorded as “high polyreactivity”.

In the case of “QVQLVESGGGLVQAGGSLRLSCAASGRIFGYNAMGWYRQAPGNERELVAAITNGGSTNYADSVKGRFTISRDNAKNTVYLQINSLKPEDTAVYYCAVKWYPPGHDYWGQGTQVTVSS”, the “polyreactivity (PSR sort gate)” value was “low polyreactivity”.

The record behind these values is the nanobody polyreactivity screen of Harvey et al. (2022).
